67 sequences from the supplement of paper PMC10126150 can be followed below.

This data set concerns ATP. As to the kind of experiment: switch fluorescence ratio, 500 uM ATP over buffer (Cy3 cluster intensity, sum of 5 cycles each) (fold (ratio)); higher = stronger signal-on switching upon ATP binding; sequences stand for … in TCGTCGGCAGCGTCAGATGTGTATAAGAGACAGTTTTTTTTTTTTTTTTTTTTTTTTT…TC. The following applies: aptamer strand: ATP DNA aptamer (quencher-CACCTGGGGGAGTATTGCGGAGGAAGG + anchor), 100 nM annealed; ATP concentration: 500 uM. The method, boiled down: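 Imaging in selection buffer was followed by imaging after 15 min with 500 uM ATP at 22 °C, for Cy3-labelled switching-strand clusters annealed to 100 nM quencher-labelled ATP aptamer on a modified Illumina MiSeq flow-cell. Five of these buffer/ATP cycles ran, separated by NaOH stripping and re-annealing. The fluorescence ratio per cluster is summed target-cycle over summed buffer-cycle Cy3 intensity, averaged per switch-domain sequence; clusters outside 100-1000 RFU were removed.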

± gives the standard deviation of the averaged measurements.
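Further: ATP exposure 15 min at 22 °C before imaging.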

As for TAGAGTCTTT, the switch fluorescence ratio was 0.994 ± 0.013.
The figure for TAGAGTTATT is 1.01 ± 0.014; for TAGAGTTGTT it is 0.984 ± 0.03; for TAGATAGAGT it is 0.994 ± 0.024.
As for TAGATATTTT, the switch fluorescence ratio amounted to 0.986 ± 0.032.
With TAGATCAAG, the switch fluorescence ratio was determined as 1.04 ± 0.028.
As for TAGATTCGCT, the switch fluorescence ratio is 0.993 ± 0.039.
For TAGATTCGTT, the switch fluorescence ratio was found to be 0.9907 ± 0.0071.
Turning to TAGATTGAAA, the switch fluorescence ratio was found to be 0.986 ± 0.028.
Regarding TAGATTGGGT, the switch fluorescence ratio worked out at 0.976 ± 0.033.
As for TAGCAAGTGG, the switch fluorescence ratio came to 0.998 ± 0.043.
Turning to TAGCAATGAA, the switch fluorescence ratio amounted to 1.53 ± 0.057.
As for TAGCACGGAT, the switch fluorescence ratio was 1.02 ± 0.038.
As to TAGCAGATCA, the switch fluorescence ratio is 0.994 ± 0.024.
Turning to TAGCAGGGGG, the switch fluorescence ratio is 1.03 ± 0.011.
Consider TAGCAGGTTA, for which the switch fluorescence ratio is 1 ± 0.016.
For the sequence TAGCATGTGG, the switch fluorescence ratio was found to be 1.0006 ± 0.0008.
As for TAGCCTTTGG, the switch fluorescence ratio is 0.978 ± 0.034.
On to TAGCCTTTTT, for which the switch fluorescence ratio came to 0.955 ± 0.015.
The figure for TAGCGAGGGG is 0.98529 ± 0.00026; for TAGCGATTGT it is 1.02 ± 0.062; for TAGCGCCCCG it is 0.987 ± 0.016.
TAGCGGGCGT: the switch fluorescence ratio worked out at 0.964 ± 0.026.
Next, TAGCGGGGGG: 1.02 ± 0.046.
In the case of TAGCGGGTTG, the switch fluorescence ratio came to 1.03 ± 0.036.
Regarding TAGCGTCTGT, the switch fluorescence ratio is 0.983 ± 0.02.
TAGCGTTTGG: the switch fluorescence ratio turned out to be 1.01 ± 0.045.
With TAGCTAGTCG, the switch fluorescence ratio worked out at 1.01 ± 0.039.
Consider TAGCTCCGTA, for which the switch fluorescence ratio stood at 1.09 ± 0.036.
In the case of TAGCTGTTCG, the switch fluorescence ratio was determined as 0.9887 ± 0.004.
Regarding TAGCTTCTGC, the switch fluorescence ratio is 0.907 ± 0.063.
Take TAGCTTTTAT: the switch fluorescence ratio was found to be 0.996 ± 0.032.
For the sequence TAGGAAAAAA, the switch fluorescence ratio is 1.03 ± 0.033.
Take TAGGAAAGAA: the switch fluorescence ratio is 1.03 ± 0.028.
As to TAGGAAATTA, the switch fluorescence ratio came to 1 ± 0.015.
Regarding TAGGAAGGTT, the switch fluorescence ratio was determined as 0.9879 ± 0.0036.
Regarding TAGGAATACG, the switch fluorescence ratio worked out at 1.24 ± 0.036.
In the case of TAGGACGGGT, the switch fluorescence ratio came to 0.9932 ± 0.0054.
The figure for TAGGAGCGTG is 1.02 ± 0.044; for TAGGAGGGGA it is 1.01 ± 0.029; for TAGGAGTAAG it is 1.01 ± 0.03.
Next, TAGGATAGAC: 1 ± 0.017.
Consider TAGGATAGGG, for which the switch fluorescence ratio was 0.9972 ± 0.0021.
For the sequence TAGGATATTT, the switch fluorescence ratio is 1 ± 0.02.
Regarding TAGGATGTA, the switch fluorescence ratio was determined as 0.9643 ± 0.0014.
As for TAGGATTGG, the switch fluorescence ratio turned out to be 0.971 ± 0.015.
With TAGGATTGTG, the switch fluorescence ratio was determined as 0.9991 ± 0.0081.
Next, TAGGCAATCT: 1.25 ± 0.092; TAGGCAGCGG: 0.991 ± 0.023; TAGGCCAGTA: 1.024 ± 0.0091.
As to TAGGCCCCTG, the switch fluorescence ratio was 0.985 ± 0.041.
For TAGGCCTAAT, the switch fluorescence ratio amounted to 0.9715 ± 0.003.
On to TAGGCGGCGA, for which the switch fluorescence ratio came out at 1 ± 0.022.
Turning to TAGGCGGGGA, the switch fluorescence ratio came to 1.07 ± 0.059.
As for TAGGCGTCTG, the switch fluorescence ratio was found to be 1 ± 0.012.
Regarding TAGGCTGAAA, the switch fluorescence ratio was 0.9906 ± 0.0024.
Next, TAGGCTGTTA: 0.995 ± 0.036; TAGGCTTATG: 0.9786 ± 0.0037; TAGGCTTTTG: 1.03 ± 0.056.
For TAGGGAAAAT, the switch fluorescence ratio was 0.9833 ± 0.0029.
With TAGGGAAACT, the switch fluorescence ratio is 1.21 ± 0.26.
As for TAGGGAACGT, the switch fluorescence ratio is 1.04 ± 0.04.
On to TAGGGAAGAG, for which the switch fluorescence ratio worked out at 0.996 ± 0.041.
Next, TAGGGAATGA: 1 ± 0.016.
TAGGGAATTA: the switch fluorescence ratio was 1.01 ± 0.012.
As to TAGGGACGCA, the switch fluorescence ratio amounted to 1.16 ± 0.018.
Next, TAGGGACTCT: 0.995 ± 0.014.
